# Non-standard residues stand in square brackets, D forms with d. Residues, ends and D or L forms follow the SMILES beside them. No end group written: not given here. *: point of attachment. βGlc = OC[C@H]1O[C@@H](*)[C@H](O)[C@@H](O)[C@@H]1O; Dmt = Cc1cc(O)cc(C)c1C[C@H](N)C(=O)O
# B1: bilaid B (H-FvVy-OH) (peptide)
# peptide: H-F[dV]V[dY]-OH
# SMILES: CC(C)[C@H](NC(=O)[C@H](NC(=O)[C@@H](N)Cc1ccccc1)C(C)C)C(=O)N[C@H](Cc1ccc(O)cc1)C(=O)O
# B2: bilaid A (H-FvVf-OH; L-Phe-D-Val-L-Val-D-Phe) (peptide)
# peptide: H-F[dV]V[dF]-OH
# SMILES: CC(C)[C@H](NC(=O)[C@H](NC(=O)[C@@H](N)Cc1ccccc1)C(C)C)C(=O)N[C@H](Cc1ccccc1)C(=O)O
# notes: Natural product of Penicillium sp; MST-MF667; made by Fmoc synthesis for the assays; also called 1a; peptide 1a
# B3: bilaid C (H-YvVf-OH; L-Tyr-D-Val-L-Val-D-Phe) (peptide)
# peptide: YVVF
# modifications: D-Val at 2; D-Phe at 4; free C-terminal acid
# notes: Natural product of Penicillium sp; MST-MF667; made by Fmoc synthesis; also called 3a; peptide 3a
# B4: H-FvVy-NH2 (peptide)
# peptide: H-F[dV]V[dY]-NH2
# SMILES: CC(C)[C@H](NC(=O)[C@H](NC(=O)[C@@H](N)Cc1ccccc1)C(C)C)C(=O)N[C@H](Cc1ccc(O)cc1)C(N)=O
# B5: H-FvGy-NH2 (L-Phe-D-Val-Gly-D-Tyr-NH2) (peptide)
# peptide: H-F[dV]G[dY]-NH2
# SMILES: CC(C)[C@@H](NC(=O)[C@@H](N)Cc1ccccc1)C(=O)NCC(=O)N[C@H](Cc1ccc(O)cc1)C(N)=O
# notes: also called 2d; peptide 2d
# B6: H-FGVy-NH2 (peptide)
# peptide: H-FGV[dY]-NH2
# SMILES: CC(C)[C@H](NC(=O)CNC(=O)[C@@H](N)Cc1ccccc1)C(=O)N[C@H](Cc1ccc(O)cc1)C(N)=O
# Key:
# human MOPr (hMOPr) = molecular target: T1, human MOPr (hMOPr) (Homo sapiens, UniProt P35372); experiment: Inhibition of forskolin induced cAMP formation in HEK cells expressing hMOPr; format: cell-based; conditions: for activity in cAMP screen: 10 μM; for TetraQ, initial screen % inhibition of forskolin-stimulate cAMP formation in hMOPr HEK cells: 10 um
# T1 construct: expressed in transfected cells; host or cells: HEK cells
# Description: Procedure for measuring the level of intracellular cAMP produced upon modulation of adenylate cyclase activity by G-protein-coupled receptors (GPCRs). To test the functional interaction between opioids, and opioid-like compounds, and specific opioid GPCRs by measuring changes in intracellular cAMP levels relative to basal levels. The assay can measure agonist and antagonist activity on GPCRs by stimulating cells to either increase or decrease intracellular cAMP levels.
# The assay is performed in a 384-well plate and each data point is performed in triplicate. The test compounds should be analyzed on the same plate as controls and cAMP standards. The number of compounds to be screened for activity will determine the volume of reagents and cells required for each experiment. The test compounds, controls and cAMP standards can be added to the plate in advance or while the cells are incubating with stimulation buffer. The plate should be sealed with TopSeal adhesive sealing film to avoid evaporation.
# Assay background: Detection of cAMP is based on the competition between intracellular cAMP and biotinylated cAMP linked streptavidin-coated donor beads for anti-cAMP conjugated acceptor beads. When the donor and acceptor beads are in close proximity a signal emitted at 520-620 nm is detected using the Envision multilabel plate reader.
# Preparation of test peptides: Test peptides are typically tested at a final concentration of 10 μM. As most test peptides are dissolved in 100% DMSO it is recommended that the DMSO concentration is limited to 2% v/v during cell stimulation to ensure maximum cell viability and responsiveness. Prepare 1 mM and 100 μM stock solutions of test peptides in an appropriate diluent and store at 4° C. For a library of peptides this can be performed in 96 well plates sealed with silicon sealing mats. Test peptides are diluted fresh from stock solutions to a working concentration in stimulation buffer with forskolin. It should be noted that as peptides are diluted 1:1 with cells in the assay the working concentration should be twice the final required concentration. It may be necessary to perform assays on compounds freshly diluted from DMSO stocks compounds to avoid experimental variability.
# Preparation of cells: For best results cells should be low passage at 70-90% confluence. To prepare cells for the assay remove growth medium, add Versene and then incubate at 37° C. for approximately 5 minutes to allow cells to detach from the tissue culture plastic. Collect cells and centrifuge for 2 minutes at 275×g. Decant the supernatant and resuspend the cell pellet in 1×PBS. Determine the cell concentration using a haemocytometer. Re-centrifuge cells for 2 minutes at 275×g and decant supernatant. Resuspend cells in stimulation buffer to a final concentration of 1-4×10^4 cells per ml. Note that the cells number will influence the cAMP levels prevailing before (basal) and after adenylate cyclase activation. A cell titration should be performed to optimize the difference between basal and stimulation levels of cAMP. Cells are incubated in stimulation buffer for 20 to 30 minutes at 37° C. prior to adding 5 μl to wells containing test and control compounds. Note that cells are not added to the cAMP standards.
# 1. Add standards (10 μl/well), control compounds (5 μl/well) and test peptides (5 μl/well) into 384-well plates and seal with Top Seal adhesive sealing film. Leave at room temperature until the cell incubation is complete. 2. Add 5 μl cells incubated in stimulation buffer to the wells containing test peptides and control compounds, but not to the standards. Incubate cells and compounds for 30 min at 37° C. 3. Add 10 μl lysis buffer per well. 4. Under subdued lighting add 5 μl acceptor bead solution to each well. Wrap plate in foil and incubate at room temperature with gentle mixing on an orbital shaker for 60 min. 5. […]
# C57BL/6 mice = experiment: Nociception (analgesia) testing on 54 C hotplate; format: in vivo, mouse; conditions: 54° C. hotplate, s.c.
# Description: Experiments were performed under the guidelines of the Australian code of practice for the care and use of animals for scientific purposes (National Health and Medical Research Council, Australia, 7th Edition). Great care was taken to minimise animal suffering during these experiments and to reduce the number of animals used. […] Food and water was available ad libitum. Mice were given at least 7 days to habituate to housing facilities prior to handling, and handled by the experimenter for 4 days prior to testing. […] The experimenter was blind to all drugs tested. Animals were tested on a 54° C. hotplate, with a maximum cut-off time of 20 seconds to prevent tissue damage. Endpoints were hindpaw lick, hindpaw flutter or jump. […] The percentage of maximal possible effects (% MPE) were calculated as follows: % MPE=(test latency−baseline latency)/(cutoff latency−baseline latency)×100%. The cut-off latency was 20 seconds. Significant differences were assessed with a two-way ANOVA and Tukey's post hoc multiple comparisons test. […] Doses were transformed to the logarithm of μmol/kg. A two-way ANOVA was used to compare data at equimolar doses.
# [1] = molecular target: T2, human µ-opioid receptor (hMOPr), human recombinant MOPr expressed in HEK-293 cells (human, UniProt P35372 1-400); experiment: cell-based or functional assay
# [2] = molecular target: T2, human µ-opioid receptor (hMOPr), human …; experiment: competition with [3H]DAMGO (0.5 nM), membranes with human recombinant MOPr (HEK-293), filtration and scintillation counting
# Description: The specific ligand binding to the receptors is defined as the difference between the total binding and the nonspecific binding determined in the presence of an excess of an unlabelled opioid ligand (naloxone, 10 μM). The results are expressed as a percent of control specific binding ((measured specific binding/control specific binding)×100) obtained in the presence of unlabelled peptides of interest. The IC₅₀ values (concentration causing a half-maximal inhibition of control specific binding) and Hill coefficients (nH) were determined by non-linear regression analysis of the competition curves generated with mean replicate values using Hill equation curve fitting (Y=D+[(A−D)/(1+(C/C₅₀nH)], where Y=specific binding, D=minimum specific binding, A=maximum specific binding, C=compound concentration, C₅₀=IC₅₀, and nH=slope factor).
# T1 sequence (P35372 whole entry): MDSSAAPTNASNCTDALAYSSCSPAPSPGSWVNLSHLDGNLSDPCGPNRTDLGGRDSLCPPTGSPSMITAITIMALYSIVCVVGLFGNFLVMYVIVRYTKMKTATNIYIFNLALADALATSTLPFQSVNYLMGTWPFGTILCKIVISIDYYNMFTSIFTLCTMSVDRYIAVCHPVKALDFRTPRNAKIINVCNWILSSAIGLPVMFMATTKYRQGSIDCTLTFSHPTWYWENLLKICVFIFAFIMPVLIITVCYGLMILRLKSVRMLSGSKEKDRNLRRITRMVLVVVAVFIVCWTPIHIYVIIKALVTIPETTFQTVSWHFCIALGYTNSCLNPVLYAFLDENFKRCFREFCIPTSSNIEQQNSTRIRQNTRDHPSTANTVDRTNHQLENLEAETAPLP
# T2 sequence (P35372 whole entry): as above
Molecule,"TetraQ, initial screen % inhibition of forskolin-stimulate cAMP formation in hMOPr HEK cells (human MOPr (hMOPr))",% inhibition of forskolin-stimulate cAMP formation in hMOPr HEK cells (10 um) [1],other results
"CC(C)[C@H](NC(=O)[C@H](NC(=O)[C@@H](N)Cc1ccc(O)cc1)C(C)C)C(=O)N[C@H](Cc1ccccc1)C(=O)O [peptide 3a, L-Tyr-D-Val-L-Val-D-Phe]",–,–,activity in cAMP screen (human MOPr (hMOPr)): showed activity
H-fVvF-NH2 [1f],0%,–,–
H-FvVy-NH2 [2b],0%,–,activity in cAMP screen (human MOPr (hMOPr)): Neither Bilaid B (2a) nor its C-terminal carboxamide analogue (2b) showed activity
H-FGVy-NH2 (H-FGV[dY]-NH2; SMILES CC(C)[C@H](NC(=O)CNC(=O)[C@@H](N)Cc1ccccc1)C(=O)N[C@H](Cc1ccc(O)cc1)C(N)=O) [2e],0%,–,–
H-FGGy-NH2 (H-FGG[dY]-NH2; SMILES NC(=O)[C@@H](Cc1ccc(O)cc1)NC(=O)CNC(=O)CNC(=O)[C@@H](N)Cc1ccccc1) [2f],0%,–,–
H-FVVY-NH2 [2c],0%,–,–
H-fvVF-OH [1d],0%,–,–
H-FvVy-OH (H-F[dV]V[dY]-OH; SMILES CC(C)[C@H](NC(=O)[C@H](NC(=O)[C@@H](N)Cc1ccccc1)C(C)C)C(=O)N[C@H](Cc1ccc(O)cc1)C(=O)O) [2a],0%,–,activity in cAMP screen (human MOPr (hMOPr)): Neither Bilaid B (2a) nor its C-terminal carboxamide analogue (2b) showed activity
H-FVvf-OH [1c],0%,–,activity in cAMP screen (human MOPr (hMOPr)): inactive
"CC(C)[C@@H](NC(=O)[C@@H](N)Cc1ccccc1)C(=O)NCC(=O)N[C@H](Cc1ccc(O)cc1)C(N)=O [peptide 2d, L-Phe-D-Val-Gly-D-Tyr-NH2] (H-F[dV]G[dY]-NH2)",31%,–,–
"CC(C)[C@H](NC(=O)[C@H](NC(=O)[C@@H](N)Cc1ccccc1)C(C)C)C(=O)N[C@H](Cc1ccccc1)C(=O)O [peptide 1a, L-Phe-D-Val-L-Val-D-Phe] (H-F[dV]V[dF]-OH)",21%,–,activity in cAMP screen (human MOPr (hMOPr)): showed activity
H-FVvf-NH2 [1g],0%,–,–
"C[C@@H](NC(=O)[C@@H](N)Cc1ccc(O)cc1)C(=O)NCC(=O)N(C)[C@@H](Cc1ccccc1)C(=O)NCCO [DAMGO, [D-Ala^2, N-MePhe^4, Gly^5-ol]-enkephalin, reference compound]",DAMGO = 94%),–,–
"2,6-dimethyl-L-tyrosine-D-Val-L-Val-D-Phe-L-Ser(β-D-Glc)-NH2 ([Dmt][dV]V[dF]S(βGlc)-NH2; N-terminus assumed; SMILES Cc1cc(O)cc(C)c1C[C@H](N)C(=O)N[C@@H](C(=O)N[C@H](C(=O)N[C@H](Cc1ccccc1)C(=O)N[C@@H](CO[C@@H]1O[C@H](CO)[C@@H](O)[C@H](O)[C@H]1O)C(N)=O)C(C)C)C(C)C) [peptide 3h]",–,–,analgesic activity after systemic administration (C57BL/6 mice): systemically inactive
H-fVvF-OH [1b],0%,–,activity in cAMP screen (human MOPr (hMOPr)): inactive
H-[dF][dV]VF-OH [H-fvVF-OH],–,0%,–
B1,–,0%,–
FVVF (D-Val at 3; D-Phe at 4; C-terminal amide) [H-FVvf-NH2],–,0%,–
FVVF (D-Phe at 1; D-Val at 3; C-terminal amide) [H-fVvF-NH2],–,0%,–
H-[dF]V[dV]F-OH [H-fVvF-OH],–,0%,–
H-FGG[dY]-NH2 (SMILES NC(=O)[C@@H](Cc1ccc(O)cc1)NC(=O)CNC(=O)CNC(=O)[C@@H](N)Cc1ccccc1) [H-FGGy-NH2],–,0%,–
B2,–,21%,Ki [2]: 3100 nM
B3,–,77%,Ki [2]: 210 nM
B4,–,0%,–
H-FVVY-NH2 [H-FVVY-NH2],–,0%,–
B5,–,31%,Ki [2]: 1600 nM
H-FV[dV][dF]-OH [H-FVvf-OH],–,0%,–
B6,–,0%,–

# — patent US20210355166A1, “[…] METHODS OF USE THEREOF” (priority 2018, published 2021)
